Measured values as given in paper PMC2173431 (The Journal of Cell Biology, 2003).
Where two headings read alike, the source gives them in different places.

T1: GST-AIP (human, UniProt O00170 1-330)
T1 sequence (looked up): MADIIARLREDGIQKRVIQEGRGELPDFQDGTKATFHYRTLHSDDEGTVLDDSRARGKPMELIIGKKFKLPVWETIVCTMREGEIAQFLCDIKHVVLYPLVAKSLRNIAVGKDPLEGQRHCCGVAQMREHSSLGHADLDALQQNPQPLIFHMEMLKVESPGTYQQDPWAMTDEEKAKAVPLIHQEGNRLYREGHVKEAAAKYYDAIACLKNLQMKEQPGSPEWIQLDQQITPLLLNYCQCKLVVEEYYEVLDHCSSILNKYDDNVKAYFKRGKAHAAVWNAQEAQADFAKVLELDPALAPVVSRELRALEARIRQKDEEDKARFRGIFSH

B1: MBP-cT20 (domain or fragment, human, UniProt Q15388 25-145, looked up)
chain: DRKRRSDPNFKNRLRERRKKQKLAKERAGLSKLPDLKDAEAVQKFFLEEIQLGEELLAQGEYEKGVDHLTNAIAVCGQPQQLLQVLQQTLPPPVFQMLLTKLPTISQRIVSAQSLAEDDVE

Assays:
GST-AIP [1] = target: T1, GST-AIP; assay: pull-down
GST-AIP [2] = target: T1, GST-AIP; assay: pull-down; remark: listed apart in the source

Binder | binding result (GST-AIP [1]) | binding result (GST-AIP [2])
MLFNLRILLNNAAFRNGHNFMVRNFRCGQPLQ [synthetic presequence peptide of human pOTC] | binds | –
QRIVSAQSLAEDDVE [Tom20C[131–145] peptide] | binds | –
B1 | – | binds
